Common to all, as to assay type: cell-based
Series [1] relates to human eosinophils. Put plainly: Antagonist activity using shape change of human eosinophils as index (Example 19). Particulars: DKPGD2 0.1-1000 nM, FIG. 16. Here is the method:
Eosinophils were separated from human peripheral blood in the same manner as in Example 11. The isolated human eosinophils were suspended with Dulbecco's phosphate buffered saline (hereinafter, referred to as D-PBS (−)) (NACALAI TESQUE, Inc.) and performed a reaction in a 5% CO2 incubator at 37° C. for 1 hour and 30 minutes. Thereafter, the cells were seeded in a 96-well plate at 2×10^5 cells/well using 10% FBS-containing RPMI1640. Next, an isotype control antibody [CELL LAB Rat IgG2b Isotype Control (Beckman Coulter Inc.)] at a final concentration of 10 μg/mL or Lym2 antibody; or small molecular CRTH2 antagonist 00000459 (Cayman Chemical) at a final concentration of 10 μM as a positive control, was added thereto to cause a reaction in a 5% CO2 incubator at 37° C. for 30 minutes.
Next, DKPGD2 (Cayman Chemical) at each of final concentrations of 0.1, 1, 10, 100, and 1000 nM was added thereto to cause a reaction in a 5% CO2 incubator at 37° C. for 60 minutes. After the reaction, the cells were washed twice with ice-cold PBS, Fixation Buffer (BD Biosciences) was added at 200 μL/well, and the resultant was suspended well and allowed to stand at 4° C. for 30 minutes. After that, the cells were washed twice with SM, and shape change of eosinophils was analyzed by flow cytometry (BD Biosciences, FACS CantoII).
The shape change of eosinophils was analyzed based on an increase in Forward Scatter Light (FSC) plot which is an index of the cell size, the cell surface area, or the cell diameter in the analysis using flow cytometry and the percentage (%) of eosinophils detected in the gate of high FSC was calculated based on the FSC of DKPGD2-untreated eosinophils.

Series [2] concerns human eosinophils. Put plainly: Eosinophil depletion (cytotoxic) activity in human peripheral blood cells, flow cytometry. Particulars: Example 8; 0.01-1000 ng/mL, 37° C., 20 hours; FIG. 3. The method, then: (§1) Human peripheral blood collected by adding a heparin sodium injection liquid was centrifuged at 4° C. and 1500 rpm for 30 minutes, and the plasma was recovered.
(§2) After the plasma was recovered, PBS (NACALAI TESQUE, Inc.) was added to the pellet containing the red blood up to the original volume of blood and the pellet was suspended. Next, to 1 mL of the suspension, 10 mL of hemolyzing solution [solution obtained by diluting 10×RBC Lysis buffer (eBioscience) 10 times with sterile water] was added to be mixed by inversion. The resultant was allowed to stand at room temperature for 10 minutes and centrifuged at room temperature and 1500 rpm for 5 minutes and washed twice with PBS after the supernatant was removed therefrom.
(§3) Thereafter, the cell pellet was suspended with the recovered plasma and the cells were seeded in a 48-well plate at 300 μL/well, each of chLym2, humanized Lym2 antibodies LV0HV0, LV0HV1, and LV0HV2a, or an isotype control antibody [IgG1 antibody prepared according to the method described in Example 5 using a vector encoding an anti-2,4-dinitrophenol (DNP) IgG1 antibody described in Clin Cancer Res 2005, 11(8), 3126 to 3135 (hereinafter, referred to as anti-DNP IgG1 antibody)] were added at each final concentrations of 1000, 100, 33, 11, 3.7, 1.2, 0.4, and 0.01 ng/mL to cause a reaction in a 5% CO2 incubator at 37° C. for 20 hours.
(§4) After the reaction, the cell fluid in each well was recovered, 10 mL of SM was added thereto, 200 μL per sample of CountBright Absolute Counting Beads, for flow cytometry (Molecular Probes) was added as control beads, and the fluid was centrifuged at 4° C. and 2000 rpm for 10 minutes, and then the supernatant was removed. The resultant was washed twice with SM, 10000 μg/mL of IgG from human serum (Sigma-Aldrich Co. LLC) diluted with SM was added at 300 μL/sample and suspended to cause a reaction at 4° C. for 30 minutes. […]
(§5) The cells were washed twice with SM, suspended by SM containing 1% of 7-AAD Staining Solution (BD Biosciences), allowed to stand at 4° C. for 10 minutes, and the fluorescent intensity was analyzed by flow cytometry (BD Biosciences, FACS CantoII).
(§6) Human eosinophils were detected as 7-AAD negative siglec8-PE positive fractions in granulocyte fractions of FSC-SSC deployment. Human basophils were detected as 7-AAD negative fractions, CD123-PC-Cy7 positive fractions, FcεRI-APC positive fractions in lymphocyte fractions of FSC-SSC deployment. The cell depletion activity was evaluated by analyzing the count number of each cell per a certain number of CountBright. […]
A general note: A flow cytometer gives signals particle by particle.

The next series relates to human basophils. Put plainly: Basophil depletion (cytotoxic) activity in human peripheral blood cells, flow cytometry. Particulars: Example 8; 0.01-1000 ng/mL, 37° C., 20 hours; FIG. 3. Here is the method: as §1, §2, §3, §4, §5, §6

These results are taken from patent US10100120B2, “Antibody which specifically binds to human CRTH2” (KYOWA HAKKO KIRIN CO., LTD, priority 2015, dated 2018).

Residue numbers refer to the chain shown, from its start.

Consider `CCCCCC(=O)CC[C@H]1C(=O)C[C@H](O)[C@@H]1C/C=C\CCCC(=O)O` [DKPGD2, 13, 14-dihydro-15-keto prostaglandin D2], for which, in the series on human eosinophils [1] (37° C., 60 minutes), the “shape change of eosinophils induced by ligand” value was “induced shape change of eosinophils in a concentration-dependent manner”.
Regarding `Cc1c(Cc2ccc3ccccc3n2)c2cc(F)ccc2n1CC(=O)O` [OC000459], in the series with human eosinophils [1] (antibody 10 μg/mL or small molecule 10 μM), the “inhibition of DKPGD2-dependent shape change of eosinophils (antagonist activity)” value is “inhibited”.

B1: LV0HV0: humanized Lym2 antibody, VL LV0 (SEQ ID NO: 33), VH HV0 (SEQ ID NO: 49) (antibody, V domains shown)
VH: EVQLVESGGGVVQPGRSLRLSCAASGFTFSNYYMAWVRQAPGKGLEWVATISYDGSSTYYRDSVKGRFTISRDNAKNSLYLQMNSLRAEDTAVYYCARHRGYYYSGAGYFDYWGQGTMVTVSS
VL: DIVMTQTPLSLPVTPGESASISCRSSQSLEYSDGYTYLEWYLQKPGQSPQVLIYGVSNRFSGVPDRFSGSGSGTDFTLKISRVEAEDVGVYYCFQATHDPLTFGQGTKLEIK
For the molecule B1, the “cytotoxic activity against eosinophils” value with human eosinophils [2] is “comparable to the chimeric Lym2 antibody chLym2”. Moreover, the “cytotoxic activity against basophils” value in the series with human basophils was “comparable to the chimeric Lym2 antibody chLym2”.

B2: LV0HV2a: humanized Lym2 antibody, VL LV0 (SEQ ID NO: 33), VH HV2a (SEQ ID NO: 53) (antibody, V domains shown)
VH: B1 VH with V93T, T117V
VL: B1 VL
As to B2, in the series on human eosinophils [2], the “cytotoxic activity against eosinophils” value is given as “comparable to the chimeric Lym2 antibody chLym2”. Also, in the series with human basophils, the “cytotoxic activity against basophils” value is listed as “comparable to the chimeric Lym2 antibody chLym2”.
